Assay results from a protein production outcome set (Wang et al. 2014).

Test: label from the status in PepcDB records

Sequence | protein production
MNILTLMETFSAVVEAGSFTGAAEKLGLSKSFVSKQVSTLEVELGCRLLYRTTRTLSLSDEGSQFYNHCKIIMAEAENARAEVMDRQGAPRGKIRMTIPQSLIISGFGQLLIDFQLQYPEIKLEVIASGRIEDLVKEGIDIALRVGQLEDSSLISRRLMDCTFQVVASSDYIKKWGEPFQPADLMQHNCLIYGDSKINKGWPFRSPSGESITVKAKGNFISNDGGLVVEGMLNGLGIGFGPSFLFNEHVEKGRLKLLLSDYYQPPTAISALYPLNRNLSRRIRLLIDYLSERLSV | not failed
MNINEKAIEMFEQNKYEEAMELFQQAVHKSRDVQSLNNLAWMYFYEEENDEKALELIREVVKLNPSSYFPYNILGEIYIKQKKWEEAKEVLQKSISIQPSDEAYHNVAVAHYNLGELEKASDFFLRVAGDSDYIMYSYVKCLIDLERTTEAKEKLDTFNRESDNFLGEINVADLYVELNCYKEAIEWFEKGYKECWKSPNWIGRFVYALYKTNNFSRINEVIRECIEAKTAEIEDVQNEEVEENWTENDKKELIEEYTEENNCYKTMVERIKSGYVPGLEFETDYIGACYLFGCKRHNHLEYEK | failed
MNINLSVPYAAEGPGPTINTLGQVDGEDVVSISSADLDETEGNLNMTTVSVRSGMTLSQVISRWLFTDDTIVPIEQVFPPGQSTEEVEESNRTAFISSESSATIAAMNYLNIPVEVEVAEVLTDSAATGIFEPGDKLLSIDGTAISTPGDAQTIVRSKAPGDEITISYERNDAESQATITLREHPDDSSVALLGISMLSVPSSAIEVDYNLEDIGGPSAGMMFSLAVVDKLSPGALNGGKFVAGTGTIAEDGSVGPIGGIAHKVRAAEDAGAEVFLSPADNCAEAMSAKPQDMTILKVDSLSQAIDQMAAYNEGLEHHHHHH | not failed
MNISEMDSFDVTGFVIRTTNADEVSPSTAKIGELWARFYANAAPKLNEKSKVFGLYTNYGSDFTGAFDVIACSDTLSPEILPDSVKVTVAPGKYVTFSATGEMPQVVIELWGDVWRYFGSESCPYKRAYTTDFEYYKSASEVEISIAIK | failed
MNISIFKEKSLKWQLLRRMFLLLICFLIILEIFQYFFLRHYICKDKEMLLESRINNVAHLMTTIDSEASLKKNSGYLIKKSLYFDTTSSVIDKNGNVLLFHIKDKHPTSPPIISASEYKAIMKREGNLEGYTITKNKCGEPQITIWRKIGNLNSPLGLIQLTTPYHSAAQFLYKQIYIYIVACVLILILSILIGGTLIKHTLKPLYRIAHTLNNLTVGDLNKRLSENNNQVEIDHLATAFNNMFSRIEISFNREKELKKKMQQFISDASHELRTPLTSIRGFVEVLLIGSYKDEKKLKLALNTILIESERLTELVNNLLTLTRLDRSTHTEMTKQNMSDIIEEIYPQLKILAKNRQVNLNLYDNNAYFLGNKNQIKQVIFNIVQNSINYTDKETGIITLSLSIEDTLFILKISDNGIGIASKDLPHIFDRFFRSETHRSRESGGYGLGLSIAKSIIQSHGGEISTKSIINQGTSFYIKLKRI | failed
MNISPKAIKVRNIWIGGTEPCICAPVVGEDDRKVLREAEEVCRKQPDLLEWRADFFRAIDDQERVLATANGLRNIAGEIPILFTIRSEREGGQPIPLNEAEVRRLIEAICRSGAIDLVDYELAYGERIADVRRMTEECSVWLVVSRHYFDGTPRKETLLADMRQAERYGADIAKVAVMPKSPEDVLVLLQATEEARRELAIPLITMAMGGLGAITRLAGWLFGSAVTFAVGNQSSAPGQIPIDDVRTVLSILQTYSR | not failed
MNITKAFCLSIALLGASNMQAITNSDFVIQQDNTKINNYQTNRPETSKRLFVSQAVEQQIAHIKQLLTNARLAWMFENCFPNTLDTTVHFDGKDDTFVYTGDIHAMWLRDSGAQVWPYVQLANKDAELKKMLAGVIKRQFKCINIDPYANAFNMNSEGGEWMSDLTDMKPELHERKWEIDSLCYPIRLAYHYWKTTGDASIFSDEWLTAIAKVLKTFKEQQRKEDPKGPYRFQRKTERALDTMTNDGWGNPVKPVGLIASAFRPSDDATTFQFLVPSNFFAVTSLRKAAEILNTVNKKPDLAKECTTLSNEVETALKKYAVYNHPKYGKIYAFEVDGFGNQLLMDDANVPSLIALPYLGDVKVNDPIYQNTRKFVWSEDNPYFFKGTAGEGIGGPHIGYDMIWPMSIMMKAFTSQNDAEIKTCIKMLMDTDAGTGFMHESFHKNDPKNFTRSWFAWQNTLFGELILKLVNEGKVDLLNSIQLEHHHHHH | failed
MNITLAVLQLEDIPQAKQFAIRTRQLLFPDVYQLALPYDLTHFQDVYLHDQKGACFVVKDQQHNIIGMIAYRAYNHRFALDIPKDSVEVVKLFIQPEYRRQGLASRLCEALFGYAAQQKIKYFYLHTHPFLPAAEYFWTKQGFDVIHREEIQNYDTIHMFKSA | failed
MNIVKLMVIIIYLIIGSALGIIIIPEIANDLGLQNSSFLKNHYVDGIIGSIFMFLIFGVFIRRVTNAIKGLEHFIMRRSAVEILFATIGLIIGLLISVMVSFILESIGNSIFNHFIPVIITILLCYFGFQFGLKKRDEMLMFLPENIARSMSQHTKSATPKIIDTSAIIDGRILEVIRCGFIDGNILIPQGVINELQIVADSNDSVKREKGKRGLDILNELYDLDYPTKVIHPTKTHSDIDTMLLKLAKQYHASIITTDFNLNKVCHVHGIKALNVNDLSEAIKPNVHQGDQLHILLTKMGKEPGQAVGYLDDGTMVVVDNAKNLIGSHVNLEVVSLLQTSSGRIVFAKKIEDTVSLLEHHHHHH | failed
MNKDLKAIKWFITTQILKDPFNPAYATFKVTSRCNLRCTFCSPSYYSGELGEGSTERVKKIIDNLRDSSIVVLSFEGGEPTYRPDILDLLEYAHDGSFYIMLTTNGYRLKDEDFLTKLADKIDFLHYSIDEYHWNVKELENLCRFRKYGLKVNVQTVVTRYNLYKLEEKVRKVAECGYKILAMPAVDYPNSKVKLAPDPYEFYKVLYDLKRKYGSTLNNSWGFINAIIGKVPKRVVSYAITIYPNGDLPYPDDINGEIVGNVAEEPLNKILQSSKVKELQQKMLENQAKFEYLHLQTASFNNIRDLASYVSEMLRWRFTGRA | failed
MNKEMTLLPPPELVQYVGGDFKKVGKEFLKHFIQIGALKSNEKVLDVGCGVGRMAVPLMNYLNDDGAYYGFDLFKDGITWCQNNISTMRNNFHFEHVDIYNQFYNPEGKEDASQYRFPYEDGTFDFIFLTSVFTHLLPKELEHYVSEIVRVLKKDGRCFITFFLINPESSYYLNAGQSTLGFYHRIENCYVVNKDIPNFAVAYPETDICNLLNKYGLEIINKPHYGLWCGRHEYTSYQDIVLTKKSLEHHHHHH | failed
MNKERGMKGTCLCGAIEVIAEPKNEVSLCHCSMCRKWSSGALHAVHCGPEVTFKGAEPKRYQSSDWAVRGFCGECGTNLFYHLLPTNEYILSAGLFDNPDFKLTLEIFTDEKPGYYELNPHSKKMTAQEVYDQFVPKE | failed
MNKFELYHPILTEHFALDWLTHSKVRDIFELRHDPEIAKASDRDIDATIEDTTTYVNQMMRLVMNNEALIWGITDQNTHEFLGTFCIWDFDQAQKSASVRFEILRNQQHKGIMSEVLRRMSIFSFEELGLEKLFATALKNNTIARTLLEQVGFSAVASQTDNQNITLELNRH | failed
MNKFGAEKIFIEKQSGATITHRPIFQEALDFVRAQDIFIVEAIDRLGRNYDEIIDSVNYLKKKNVRLIITSLPIMAEAIGNPLLDKFIKDLIIQILAMIAEQERTESKRRQAQGIKIAKANGVYKGRPKLYSADTKDPQRRLVYKSIVQDLKNGVAISKIAKDYNITRQTIYRIKKEIHELEIN | failed
MNKFLTTIIIKSKCSLLFISSINDSFIYIIRRMINANWSNFTLSWSIARNYWYYFRKCLDGRPFTVFLTSYQIFSTSFCKGNMFYVISSLIIFIQIMNCFLEHHHHHH | failed
MNKHASQPRAIYYVVALQIWEYFSFYGMRALLILYLTNQLKYNDTHAYELFSAYCSLVYVTPILGGFLADKVLGNRMAVMLGALLMAIGHVVLGASEIHPSFLYLSLAIIVCGYGLFKSNVSCLLGELYEPTDPRRDGGFSLMYAAGNVGSIIAPIACGYAQEEYSWAMGFGLAAVGMIAGLVIFLCGNRHFTHTRGVNKKVLRATNFLLPNWGWLLVLLVATPALITILFWKEWSVYALIVATIIGLGVLAKIYRKAENQKQRKELGLIVTLTFFSMLFWAFAQQGGSSISLYIDRFVNRDMFGYTVPTAMFQSINAFAVMLCGVFLAWVVKESVAGNRTVRIWGKFALGLGLMSAGFCILTLSARWSAMYGHSSLPLMVLGLAVMGFAELFIDPVAMSQITRIEIPGVTGVLTGIYMLLSGAIANYLAGVIADQTSQASFDASGAINYSINAYIEVFDQITWGALACVGLVLMIWLYQALKFRNRALALES | failed
MNKKKIKKLIKSALATTCAVSVITTTSVTAFASNSGENSKEEESNKRVEAEVYPVPQSLEHSSIEGMTLEGEVNIVYHGEQEAATSKRLERTLNENNIAFKVSENVEEGKANIIVSSEGDHCDVCSEGKEENSDVLTHKEGYVLKTSNDINEKGNISIIGSDKDGAYYGVLTLSQILEQSNEENKFAEVVVTDYPEIEFRGFIEGFYGVPWSHEDRMNLMKDTSEYKMNTYIYAPKDDPYHRLSWKELYPEQEAKQIAELAKAGAENNFNFCWTIHPGATLQFTDEDFDALINKFEQLYSLGVRQFGVLFDDTDDWRNGQKQAEWINKIDTEFVKAKGDVAPMIVISARYNSAWGPNMDRYFKPFMQTLHDDIQVMWTGHATMSNVSKEVFEWPKVQTGVDKDVAVWWNYPVNDYCDSRILMAPLHNLNQDLDNVSGFFSNPMNQAEASKVALYSIADYTWNTDAFDYMKSWETSIEKFVPEVKEEFMRFASNTCYLKDDGGASGPFEYDESWYLSEKIDALKEAMKNGQSAVKPAKDLLEEFKLIVSDYESITSKVTNKNLLGEIEQHLNAYKALGEAGIAAMEAIIASEEGNLELWMNSNSLAQEKLDLMETFKIESLESDGPKEYVVSVGTKLLKPLVKESMDYAKEKMGEVVLPKYDPEINTSLTNLKDVEVNFEDGIYSLRDLGEVTLNNGDYVGISLPKATKLRGINLLANNYDNIEIQYSINGLDWVTAKASTNENVLETLDVVDATFIRIINIGENSKNINLEKLEVLPVYKAEPTITENIGTHENYTIDKALDGNMDTKYWSNKPSDSGHNIQIDLGNVMPLYDINTYFGANDFMRNSEYMISEDGVNWTSLGALAYNSQDGKMVASANAEGKMARYIKIQSNGHNYGCWVEIYEIEFNKTAPEFDESAVNLASGTLEGNFNAFYDEDLSTAYEAKSVKDGDSLIYKMSRVTNISELEILQDKNRISEAKVSVKDLGGNWTEIGHLNAQINKLKVDNNITEVKFEFEGSKPAPKIYEIIAREREEQEEIVVSPVKEFKATTINKKNVTVSWEEPENTFGLESYILYKDGKKVSEISSDETSYTFKGLNRHTIYNFKIAAKYSNGEISKKESLTIRTAR | failed
MNKKRTVDLIHGPILPSLLSFTFPILLSNIFQQLYNTADVLIVGRFLGQESLAAVGATTAIFDLIVGFTLGVGNGMGIVIARYYGARNFTKIKEAVAATWILGALLSILVMLLGFLGLYPLLQYLDTPAEILPQSYQYISMIVTCVGVSFAYNLFAGLLRSIGDSLAALGFLIFSALVNVVLDLYFITQLHLGVQSAGLATIISQGLSAVLCFYYIRKSVPELLPQFKHFKWDKSLYADLLEQGLAMGLMSSIVSIGSVILQFSVNTFGAVIISAQTAARRIMTFALLPMTAISASMTTFASQNLGAKRPDRIVQGLRIGSRLSISWAVFVCIFLFFASPALVSFLASSTDGYLIENGSLYLQISSTFYPILSLLLIYRNCLQGLGQKILPLVSSFIELIGKIVFVVLIIPWAGYKGVILCEPLIWVAMTVQLYFSLFRHPLIKEGKAILATKVQS | failed
